Among the data in article PMC9351452 (Proceedings of the National Academy of Sciences of the …, 2022) are Kd, stoichiometry N and dH values, retold here.

Read-outs that look alike come from different tables or passages of the source.

Assay [1] addresses T1, DCCP-R (double-cubane cluster protein reductase) (Carboxydothermus hydrogenoformans, UniProt Q3AET8).
T1 sequence (Q3AET8 1-245): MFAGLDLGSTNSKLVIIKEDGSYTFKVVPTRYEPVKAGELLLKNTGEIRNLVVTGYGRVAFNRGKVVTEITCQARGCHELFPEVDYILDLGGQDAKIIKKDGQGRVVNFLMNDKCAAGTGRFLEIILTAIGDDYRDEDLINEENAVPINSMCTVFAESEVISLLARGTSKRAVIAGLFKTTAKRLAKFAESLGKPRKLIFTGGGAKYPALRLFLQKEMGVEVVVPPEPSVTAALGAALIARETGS
Nature of the assay: isothermal titration calorimetry. Format: binding. A general note: Isothermal titration calorimetry measures the heat released or taken up as one component is titrated into another.

Assay [2] concerns the target double-cubane cluster protein reductase (DCCP-R). The assay can be described thus: SEC. In general terms: SEC sorts molecules by how far they enter the pores of the column.
Assay [3] addresses double-cubane cluster protein (DCCP). Nature of the assay: ITC.
The target is the same in assay [4]. The assay can be described thus: ITC. This is another data set of the same source.
The target is the same in assay [5]. Nature of the assay: SEC.
For assay [6] the target is unchanged. The assay can be described thus: SEC. This is another data set of the same source.
Assay [7] addresses double-cubane cluster protein reductase (DCCP-R) from Carboxydothermus hydrogenoformans (Carboxydothermus hydrogenoformans). Nature of the assay: SEC.
The next assay deals with T2, DCCP:DCCP-R complex (Carboxydothermus hydrogenoformans, UniProt Q3AET8).
T2 sequence (Q3AET8 1-245): T1 sequence (Q3AET8 1-245)
T2 sequence (Q3AET9 1-421 partner): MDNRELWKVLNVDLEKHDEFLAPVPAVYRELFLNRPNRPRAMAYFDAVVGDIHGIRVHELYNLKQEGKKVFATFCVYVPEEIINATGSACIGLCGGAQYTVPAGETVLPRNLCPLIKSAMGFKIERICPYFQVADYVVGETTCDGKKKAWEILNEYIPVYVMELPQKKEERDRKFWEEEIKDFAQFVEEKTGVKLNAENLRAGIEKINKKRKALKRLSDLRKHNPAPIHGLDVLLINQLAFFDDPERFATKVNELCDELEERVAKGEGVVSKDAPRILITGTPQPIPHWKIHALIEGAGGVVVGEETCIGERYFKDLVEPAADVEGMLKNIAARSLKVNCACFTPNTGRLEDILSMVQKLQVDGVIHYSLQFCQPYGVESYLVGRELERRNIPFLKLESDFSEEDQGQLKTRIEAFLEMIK
Nature of the assay: isothermal titration calorimetry. Format: binding. The following applies: Mg2+; 50 mM Tris-HCl pH 8.0, 25 °C, anoxic; DCCP present in cell; reduced DCCP-R.

A word on the Kd: it is the constant that tells how readily two partners part at equilibrium. Higher therefore signals lower affinity. Usually stoichiometry N stands for a count of units in the complex or per binding partner.

As for `Nc1ncnc2c1ncn2[C@@H]1O[C@H](COP(=O)(O)OP(=O)(O)O)[C@@H](O)[C@H]1O` [MgADP], binding in assay [1] was characterised by a dissociation constant (Kd) of 42 ± 7 µM. In assay [2], “double-cubane cluster protein reductase (DCCP-R) (enzyme)” yielded a stoichiometry N of 2. Also, the values for the dH in assay [3] and in assay [4] were 5.9 kcal/mol and -31.5 kcal/mol, respectively. In the case of “double-cubane cluster protein (DCCP) (enzyme)”, the stoichiometry N in assay [5] and in assay [6] was 2 in each case. For the molecule “double-cubane cluster protein reductase (DCCP-R) from Carboxydothermus hydrogenoformans (enzyme)”, the stoichiometry N in assay [7] came out at 2.

Take `Nc1ncnc2c1ncn2[C@@H]1O[C@H](COP(=O)(O)OP(=O)(O)NP(=O)(O)O)[C@@H](O)[C@H]1O` [MgADPNP, 5′-adenylyl β, γ-imidodiphosphate]: the dissociation constant (Kd) in assay [1] was 15 ± 0.5 µM; at DCCP:DCCP-R complex, 7.1 ± 1.1 µM.
